Results published in patent publication US20050209548A1, “Electroporation-mediated intravascular delivery” (priority 2004, published 2005).

How the values were obtained:
[1] = rabbit, in vivo
Method: This catheter was used in the following experiment. Three rabbits weighing 4 Kg were anesthetized with xylazine (0.1 ml/kg) and ketamine (0.5 ml/1 g i.m.). General anesthesia was maintained with α-chloralose (30 mg/Kg. i.v.). […] A femoral artery in the leg on one side of the rabbit was exposed. A 5F sheath was introduced and the catheter was pushed under fluoroscopic guidance to the right or left carotid artery. […] Radiocontrast fluid was infused (panel b) allowing confirmation of the catheter position, the patient artery, the balloon and the built-in radiopaque marker, as well as presence of the dye in the side branches. After balloon inflation, (panel c) 1 ml of fluoresceinated heparin (concentration 1 mg dissolved in 2 ml: biological activity of heparin as per manufacturer: 167 U) was infused between the occluded segment via the drug port and the artery pulsed immediately with the balloons in the inflated condition. Initially, field parameters tested were ˜60V and four pulses each of ˜600 μs pulse length. […] In a subsequent experiment, voltage and pulse length were changed to 57V and 22 ms, respectively. As before, four pulses were delivered from ECM 600 pulse exponential generator. […] In addition, fluorescence due to collagen and elastin was also present.

[2] = Molecular Probe, Inc.; cited from earlier work
[3] = rabbit, in vivo; remark: listed apart in the source
Method: Experiments were performed in 12 New Zealand white rabbits of either sex (2.5-3.4 kg) preanesthetized with xylazine (2 mg.kg^−1) and ketamine (50 mg.kg^−1) intramuscularly and an injection of alphachloralose (30 mg.kg^−1) intraveneously through an ear vein. A supplemental dose of 10 mg.kg^−1 chloralose was given every hour. The anesthetic state was maintained such that the toe-pinching reflex and corneal reflexes were absent.
Animals were placed supine and strapped on the surgical table. The trachea was intubated to allow spontaneous breathing of ambient air. Electrocardiogram (EKG) of the animal was obtained by using Lead II in differential mode. End-tidal CO2 tension was monitored by a CO2 analyzer (Datex, Puritan-Bennett). Body temperature was kept at the 38-38.5 °C range by radiant heating.
A longitudinal incision in the cervical region was made in the rabbit to expose the common carotid arteries on both sides. Approximately 6 cm in length of carotid artery on each side was isolated from the surrounding tissue and vagosympathetic nerve trunk. The caudal end of the carotid artery on one side was transiently occluded with a vascular clip at the junction between the neck and chest. A small incision was then made at the rostral end of the artery (just below transversus vein) to push an electroporator catheter (FIG. 1) through this incision. […]
Lead II EKG Nvas differentially amplified and the output was continuously monitored on an osciloscope (Tektronix) and recorded on a Gould TA-2000 thermal-array recorder for evaluation. […]
Arterial segments were subsequently freeze sectioned (10 micron) transversely. Microscopic slides containing arterial sections were observed under a Zeiss confocal laser (argon-krypton) scan microscope (LSM 410 Invert), (excitation at 495 nm and emission at 515 nm) to obtain video image (magnification 40 times) of fluorescence. Subsequently, control and test samples were compared by analyzing fluorescence intensity by Line Intensity Scan at different depths of the arterial wall using commercially obtained software (Image 1: Universal Imaging Corp.). […]

[4] = pig, in vivo; cited from earlier work

In the case of fluoresceinated heparin [F-heparin], the “penetration and uptake after autofluorescence correction and subtraction of control artery fluorescence” value [1] is given as “deep penetration and uptake” and the activity [2] is given as 167 unit/mg.
With heparin the “duration of sustained delivery in vessel” value [3] was “at least 12 hours”, the “location in the vessel wall” value [3] was “mostly present in the media but also in the intima” and the “washout of local delivery from vessel” value [3] was “completely washes out in two hours”.
For hirudin, the “drug washed out of the vessel” value [4] is listed as 80% and the “level in vessel compared with passive delivery” value [4] is listed as “the level is the same as for the passive delivery”.
